The values that follow come from PMC11684626.

This test has as its target HA-PEG10 gag-pol (Homo sapiens) (UniProt Q86TG7). As to the kind of experiment: co-sedimentation; crude VLP preparation: conditioned medium of co-transfected HEK293 cells, cleared at 2700 x g, ultracentrifuged at 134,000 x g for 4 hr at 4°C over a 30% sucrose cushion; pellet analysed by western blot.
Chain of UniProt Q86TG7 (Q86TG7 whole entry): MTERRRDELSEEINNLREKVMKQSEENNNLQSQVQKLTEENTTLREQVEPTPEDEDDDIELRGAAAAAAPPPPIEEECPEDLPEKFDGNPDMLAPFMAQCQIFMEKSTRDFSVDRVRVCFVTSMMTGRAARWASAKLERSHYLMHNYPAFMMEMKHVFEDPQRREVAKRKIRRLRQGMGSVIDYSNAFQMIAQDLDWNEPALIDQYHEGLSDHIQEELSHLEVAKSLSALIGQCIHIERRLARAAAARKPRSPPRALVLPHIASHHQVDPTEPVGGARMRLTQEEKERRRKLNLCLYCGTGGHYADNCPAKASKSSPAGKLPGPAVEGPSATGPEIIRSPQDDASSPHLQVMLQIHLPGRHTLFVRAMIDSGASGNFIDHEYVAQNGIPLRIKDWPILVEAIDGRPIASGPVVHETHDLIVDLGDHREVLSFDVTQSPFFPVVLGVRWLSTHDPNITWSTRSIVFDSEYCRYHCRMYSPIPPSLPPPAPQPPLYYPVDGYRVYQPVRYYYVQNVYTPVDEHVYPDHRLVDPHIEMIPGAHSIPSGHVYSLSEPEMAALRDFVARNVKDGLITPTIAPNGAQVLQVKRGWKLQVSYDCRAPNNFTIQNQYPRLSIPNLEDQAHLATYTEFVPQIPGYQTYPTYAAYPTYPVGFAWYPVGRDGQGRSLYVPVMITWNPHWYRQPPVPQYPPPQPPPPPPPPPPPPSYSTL

For the substance “HA-HsRTL8c (from UniProt A6ZKI3 1-113) (natural protein)”, the abundance of RTL8 relative to HA-PEG10 in the VLP fraction came out at 5%.
